Measured values: US20140134737, “Alternative Splicing Modulators and Splice Variants and Their Use in the Control and Detection of Pluripotency and Differentiation” (Governing Council of the University of Toronto, published 2014)

B1: ATGCAGGA x2 mutant (dsDNA)
DNA 1: ATGCAGGACCATGCAGGA
DNA 2: TCCTGCATGGTCCTGCAT
B2: CGCGACAT x2 mutant (dsDNA)
DNA 1: CGCGACATCCCGCGACAT
DNA 2: ATGTCGCGGGATGTCGCG
B3: AACCCCAA x2 mutant (dsDNA)
DNA 1: AACCCCAACCAACCCCAA
DNA 2: TTGGGGTTGGTTGGGGTT
B4: AATAAACA x2 probe (dsDNA)
DNA 1: AATAAACACCAATAAACA
DNA 2: TGTTTATTGGTGTTTATT
B5: AATGGACA x2 mutant (dsDNA)
DNA 1: AATGGACACCAATGGACA
DNA 2: TGTCCATTGGTGTCCATT
B6: CCACTCAA x2 mutant (dsDNA)
DNA 1: CCACTCAACCCCACTCAA
DNA 2: TTGAGTGGGGTTGAGTGG
B7: CTATCCAA x2 mutant (dsDNA)
DNA 1: CTATCCAACCCTATCCAA
DNA 2: TTGGATAGGGTTGGATAG
B8: GGACACAA x2 mutant (dsDNA)
DNA 1: GGACACAACCGGACACAA
DNA 2: TTGTGTCCGGTTGTGTCC

Key:
Conditions in all cases: tags: GST fusion; label: radiolabeled
[1] = molecular target: T1, FOXP1-ES forkhead domain (exon 18b) (Homo sapiens); experiment: EMSA; no appreciable shift
T1 chain: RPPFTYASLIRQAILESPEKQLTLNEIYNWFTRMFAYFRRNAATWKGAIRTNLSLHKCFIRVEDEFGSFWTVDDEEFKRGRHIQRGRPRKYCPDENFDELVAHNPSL
Experimental: (§1) Radiolabeled dsDNA probes containing two copies of each 8-mer (top panels), or two copies of mutant versions of these sequences CCACTCAA, ATGCAGGA, CTATCCAA and AACCCCAA (bottom panels) were incubated in the absence (lanes 1, 10, 19 and 28) or in the presence of increasing amounts (0.2 to 3.2 pmol) of recombinant GST-FOXP1 or GST-FOXP1-ES proteins. Positions mutated in the probe sequences are underlined. Shifted protein-dsDNA complexes are indicated by arrows and free dsDNA probe is indicated by an asterisk.

[2] = molecular target: T2, FOXP1 forkhead domain (canonical, exon 18) (Homo sapiens, UniProt Q9H334 SEQ:465-555); experiment: EMSA; no appreciable shift
T2 sequence: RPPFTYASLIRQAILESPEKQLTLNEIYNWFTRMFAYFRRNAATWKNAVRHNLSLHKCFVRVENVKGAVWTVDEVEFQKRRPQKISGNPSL
Experimental: as §1

[3] = molecular target: T1, FOXP1-ES forkhead domain (exon 18b); experiment: EMSA; no appreciable shift
Experimental: (§2) FIG. 2(C) is an Electrophoresis Mobility Shift Assay (EMSA) validating PBM-derived consensus DNA binding sites for FOXP1 and FOXP1-ES. Radiolabeled dsDNA probes containing two copies of GTAAACAA (top left panel), AATAAACA (top middle panel) or CGATACAA (top right panel), or two copies of mutant versions of these sequences GGACACAA (bottom left panel), AATGGACA (bottom middle panel) or CGCGACAT (bottom right panel) were incubated in the absence (lanes 1, 9 and 19) or in the presence of increasing amounts (0.2 to 3.2 pmol) of recombinant GST-FOXP1 or GST-FOXP1-ES proteins. Positions mutated in the probe sequences are underlined. Shifted protein-dsDNA complexes are indicated by arrows and free dsDNA probe is indicated by an asterisk.

[4] = molecular target: T2, FOXP1 forkhead domain (canonical, exon …); experiment: EMSA; no appreciable shift; remark: listed apart in the source
Experimental: as §2

[5] = molecular target: T1, FOXP1-ES forkhead domain (exon 18b); experiment: EMSA; preferentially bound by FOXP1-ES
Experimental: as §2

| Binder | binding result [1] | binding result [2] | binding result [3] | binding result [4] | binding result [5] |
| --- | --- | --- | --- | --- | --- |
| B1 | no binding | no binding |  |  |  |
| B2 |  |  | no binding | no binding |  |
| B3 | no binding | no binding |  |  |  |
| B4 |  |  |  |  | binds |
| B5 |  |  | no binding | no binding |  |
| B6 | no binding | no binding |  |  |  |
| B7 | no binding | no binding |  |  |  |
| B8 |  |  | no binding | no binding |  |
